Tests used:
[1] = test system: Y. kristensenii phytase YkAPPA variant YkAPPA-L162G, SEQ ID NO.3; test: Kinetic parameters of phytase variant with sodium phytate (double reciprocal method); format: biochemical; conditions: L162G vs wild phytase
Protocol: (§1) According to embodiment of the present invention, the phytase variant YkAPPA-L162G with amino acid sequence as set forth in SEQ ID NO.3 is obtained by mutation at the 162th site of Leucine into glycine for phytase with amino acid as set forth in SEQ ID NO.1.
(§2) Gene encoding phytase YkAPPA having the nucleotide sequence as set in SEQ ID NO. 2 from Y. kristensenii was performed with site-directed mutagenesis by Overlap PCR to obtain genes encodng the phytase variants YeAPPA-L162G, YeAPPA-L162A, YeAPPA-E230G, YkAPPA-E230A, YkAPPA-E230S, YkAPPA-E230T, YkAPPA-E230D, YkAPPA-E230P, and YkAPPA-E230R, respectively.
(§3) The modified genes encoding the phytase variants were inserted into expression vector pET-22b (+), and transformed into E coli. Strain BL21 (DE3), which were induced by IPTG in 1 mM, cultivated for 5 h at 24° C. to express the phytase, followed by being purified by columns Ni-NTA and DEAE to obtain the mutant protein with the same molecular weight as that of the wild.
(§4) The effect of pepsin on the activity of the purified mutant phytase was determined by detecting the remaining activity after being treated in pH 2 for 2 hours with the different concentrations of pepsin in a mass ratio to phytase ranging from 1/1000 to 1/1. The activity of phytase was detected by ferric molybdenum sulfate blue method by adding 50 ul of phytase solution to 950 ul of sodium phytate substrate in 1.5 mmol/L to react for 30 min at 37° C., followed by adding 1 mL of 10% (m/v) TCA to stop the reaction, and 2 mL of developing color reagent. After developing, OD is measured at 700 nm to calculate the phytase activity.
(§5) The activity of phytase was measured with sodium phytate as substrate in different concentrations of 0.0625 mmol/L, 0.1 mmol/L, 0.125 mmol/L, 0.2 mmol/L, 0.25 mmol/L, 0.5 mmol/L, 1.0 mmol/L and 1.5 mmol/L at the optimal temperature and pH, followed by calculating the values of km and Vmax by double reciprocal method for Michaelis equation, and Kcat according to the theoretical molecular weight. […] And, the catalytic properties including reaction rate, turnover rate and catalytic efficiency of the other phytase variants were similar to those of the wild phytase.

[2] = test system: Y. kristensenii phytase YkAPPA variant YkAPPA-E230A, SEQ ID NO.6; test: as above; format: biochemical; conditions: E230A vs wild phytase
Protocol: (§6) According to embodiment of the present invention, the phytase variant YkAPPA-E230A with amino acid sequence as set forth in SEQ ID NO.6 is obtained by mutation at the 230th site of glutamic acid into alanine for phytase with amino acid as set forth in SEQ ID NO.1.
as §2, §3, §4, §5

[3] = test system: Y. kristensenii phytase YkAPPA variant YkAPPA-E230G, SEQ ID NO.5; test: as above; format: biochemical; conditions: E230G vs wild phytase
Protocol: (§7) According to embodiment of the present invention, the phytase variant YkAPPA-E230G with amino acid sequence as set forth in SEQ ID NO.5 is obtained by mutation at the 230th site of glutamic acid into glycine for phytase with amino acid as set forth in SEQ ID NO.1.
as §2, §3, §4, §5

[4] = test system: O=P(O)(O)O[C@H]1[C@H](OP(=O)(O)O)[C@@H](OP(=O)(O)O)[C@H](OP(=O)(O)O)[C@@H](OP(=O)(O)O)[C@H]1OP(=O)(O)O; test: as above; format: biochemical, Y. kristensenii; conditions: other: E230A, optimal pH 4.5 and temperature 55° C.
Protocol: as §6, §2, §3, §4, §5

[5] = test system: O=P(O)(O)O[C@H]1[C@H](OP(=O)(O)O)[C@@H](OP(=O)(O)O)[C@H](OP(=O)(O)O)[C@@H](OP(=O)(O)O)[C@H]1OP(=O)(O)O; test: as above; format: biochemical, Y. kristensenii; conditions: other: E230D, optimal pH 4.5 and temperature 55° C.
Protocol: According to embodiment of the present invention, the phytase variant YkAPPA-E230D with amino acid sequence as set forth in SEQ ID NO.9 is obtained by mutation at the 230th site of glutamic acid into aspartic acid for phytase with amino acid as set forth in SEQ ID NO.1.
as §2, §3, §4, §5

[6] = test system: O=P(O)(O)O[C@H]1[C@H](OP(=O)(O)O)[C@@H](OP(=O)(O)O)[C@H](OP(=O)(O)O)[C@@H](OP(=O)(O)O)[C@H]1OP(=O)(O)O; test: as above; format: biochemical, Y. kristensenii; conditions: other: E230G, optimal pH 4.5 and temperature 55° C.
Protocol: as §7, §2, §3, §4, §5

[7] = test system: O=P(O)(O)O[C@H]1[C@H](OP(=O)(O)O)[C@@H](OP(=O)(O)O)[C@H](OP(=O)(O)O)[C@@H](OP(=O)(O)O)[C@H]1OP(=O)(O)O; test: as above; format: biochemical, Y. kristensenii; conditions: other: E230P, optimal pH 4.5 and temperature 60° C.
Protocol: According to embodiment of the present invention, the phytase variant YkAPPA-E230P with amino acid sequence as set forth in SEQ ID NO.10 is obtained by mutation at the 230th site of glutamic acid into proline for phytase with amino acid as set forth in SEQ ID NO.1.
as §2, §3, §4, §5

[8] = test system: O=P(O)(O)O[C@H]1[C@H](OP(=O)(O)O)[C@@H](OP(=O)(O)O)[C@H](OP(=O)(O)O)[C@@H](OP(=O)(O)O)[C@H]1OP(=O)(O)O; test: as above; format: biochemical, Y. kristensenii; conditions: other: E230R, optimal pH 4.0 and temperature 55° C.
Protocol: According to embodiment of the present invention, the phytase variant YkAPPA-E230R with amino acid sequence as set forth in SEQ ID NO.11 is obtained by mutation at the 230th site of […] for phytase with amino acid as set forth in SEQ ID.
as §2, §3, §4, §5

[9] = test system: O=P(O)(O)O[C@H]1[C@H](OP(=O)(O)O)[C@@H](OP(=O)(O)O)[C@H](OP(=O)(O)O)[C@@H](OP(=O)(O)O)[C@H]1OP(=O)(O)O; test: as above; format: biochemical, Y. kristensenii; conditions: other: E230S, optimal pH 4.5 and temperature 55° C.
Protocol: According to embodiment of the present invention, the phytase variant YkAPPA-E230S with amino acid sequence as set forth in SEQ ID NO.7 is obtained by mutation at the 230th site of glutamic acid into serine for phytase with amino acid as set forth in SEQ ID NO.1.
as §2, §3, §4, §5

[10] = test system: O=P(O)(O)O[C@H]1[C@H](OP(=O)(O)O)[C@@H](OP(=O)(O)O)[C@H](OP(=O)(O)O)[C@@H](OP(=O)(O)O)[C@H]1OP(=O)(O)O; test: as above; format: biochemical, Y. kristensenii; conditions: other: E230T, optimal pH 4.5 and temperature 55° C.
Protocol: According to embodiment of the present invention, the phytase variant YkAPPA-E230T with amino acid sequence as set forth in SEQ ID NO.8 is obtained by mutation at the 230th site of glutamic acid into threonine for phytase with amino acid as set forth in SEQ ID NO.1.
as §2, §3, §4, §5

[11] = test system: O=P(O)(O)O[C@H]1[C@H](OP(=O)(O)O)[C@@H](OP(=O)(O)O)[C@H](OP(=O)(O)O)[C@@H](OP(=O)(O)O)[C@H]1OP(=O)(O)O; test: as above; format: biochemical, Y. kristensenii; conditions: other: L162G, optimal pH 4.5 and temperature 55° C.
Protocol: as §1, §2, §3, §4, §5

[12] = test system: O=P(O)(O)O[C@H]1[C@H](OP(=O)(O)O)[C@@H](OP(=O)(O)O)[C@H](OP(=O)(O)O)[C@@H](OP(=O)(O)O)[C@H]1OP(=O)(O)O; test: Kinetic parameters of phytase with sodium phytate (double reciprocal method); format: biochemical, Y. kristensenii; conditions: other: wild type, optimal pH 4.5 and temperature 55° C.
Protocol: as §2, §3, §4, §5

**Q.** `O=P(O)(O)O[C@H]1[C@H](OP(=O)(O)O)[C@@H](OP(=O)(O)O)[C@H](OP(=O)(O)O)[C@@H](OP(=O)(O)O)[C@H]1OP(=O)(O)O` [sodium phytate] was tested. Which “Reaction rate Vmax relative to the wild phytase” value [1] did it give?
**A.** The value was 1.6 to 1.8 times.

**Q.** And the “catalytic efficiency relative to the wild phytase” value [1]?
**A.** The value was 2.1 times.

**Q.** What about the “conversion rate Kcat relative to the wild phytase” value [1] of the same compound?
**A.** The value was 1.6 to 1.8 times.

**Q.** What about the “Reaction rate Vmax relative to the wild phytase” value [2] of the same compound?
**A.** Its value is 1.3 times.

**Q.** And the “catalytic efficiency relative to the wild phytase” value [2]?
**A.** The value was 2.1 times.

**Q.** And the “conversion rate Kcat relative to the wild phytase” value [2]?
**A.** The value was 1.3 times.

**Q.** What about the “Reaction rate Vmax relative to the wild phytase” value [3] of the same compound?
**A.** Its value is 1.9 times.

**Q.** And the “catalytic efficiency Kcat/km relative to the wild phytase” value [3]?
**A.** The value was 2.1 times.

**Q.** And the “conversion rate Kcat relative to the wild phytase” value [3]?
**A.** Its value is 1.9 times.

**Q.** What does the source list for “Y. kristensenii phytase YkAPPA variant YkAPPA-E230A, SEQ ID NO.6 (Yersinia kristensenii; E230A)”?
**A.** Km [4]: 90 µM; Vmax [4]: 4530 µmol/min/mg; kcat [4]: 3470 s⁻¹; kcat/Km [4]: 3.77e+07 M⁻¹ s⁻¹

**Q.** How did the Km [5] turn out when “Y. kristensenii phytase YkAPPA variant YkAPPA-E230D, SEQ ID NO.9 (Yersinia kristensenii; E230D)” was run?
**A.** The Km was 90 µM.

**Q.** And the Vmax [5]?
**A.** Its Vmax is 3590 µmol/min/mg.

**Q.** What about the kcat [5] of the same compound?
**A.** The kcat was 2740 s⁻¹.

**Q.** What about the kcat/Km [5] of the same compound?
**A.** Its kcat/Km is 2.91e+07 M⁻¹ s⁻¹.

**Q.** What does the source list for “Y. kristensenii phytase YkAPPA variant YkAPPA-E230G, SEQ ID NO.5 (Yersinia kristensenii; E230G)”?
**A.** Km [6]: 100 µM; Vmax [6]: 7100 µmol/min/mg; kcat [6]: 5430 s⁻¹; kcat/Km [6]: 6.17e+07 M⁻¹ s⁻¹

**Q.** Which results are given for “Y. kristensenii phytase YkAPPA variant YkAPPA-E230P, SEQ ID NO.10 (Yersinia kristensenii; E230P)”?
**A.** Km [7]: 80 µM; Vmax [7]: 3180 µmol/min/mg; kcat [7]: 2430 s⁻¹; kcat/Km [7]: 2.98e+07 M⁻¹ s⁻¹

**Q.** With “Y. kristensenii phytase YkAPPA variant YkAPPA-E230R, SEQ ID NO.11 (Yersinia kristensenii; E230R)” as the compound, how does the Km [8] read?
**A.** Its Km is 110 µM.

**Q.** And the Vmax [8]?
**A.** Its Vmax is 4330 µmol/min/mg.

**Q.** And the kcat [8]?
**A.** The kcat was 3310 s⁻¹.

**Q.** And the kcat/Km [8]?
**A.** The kcat/Km was 2.99e+07 M⁻¹ s⁻¹.

**Q.** How did the Km [9] turn out when “Y. kristensenii phytase YkAPPA variant YkAPPA-E230S, SEQ ID NO.7 (Yersinia kristensenii; E230S)” was run?
**A.** The Km was 90 µM.

**Q.** What about the Vmax [9] of the same compound?
**A.** The Vmax was 3800 µmol/min/mg.

**Q.** What about the kcat [9] of the same compound?
**A.** Its kcat is 2900 s⁻¹.

**Q.** What about the kcat/Km [9] of the same compound?
**A.** Its kcat/Km is 2.93e+07 M⁻¹ s⁻¹.

**Q.** For “Y. kristensenii phytase YkAPPA variant YkAPPA-E230T, SEQ ID NO.8 (Yersinia kristensenii; E230T)”, which Km [10] is on record?
**A.** Its Km is 80 µM.

**Q.** What about the Vmax [10] of the same compound?
**A.** The Vmax was 3250 µmol/min/mg.

**Q.** And the kcat [10]?
**A.** The kcat was 2480 s⁻¹.

**Q.** And the kcat/Km [10]?
**A.** The kcat/Km was 2.98e+07 M⁻¹ s⁻¹.

**Q.** “Y. kristensenii phytase YkAPPA variant YkAPPA-L162G, SEQ ID NO.3 (Yersinia kristensenii; L162G)” was tested. Which Km [11] did it give?
**A.** Its Km is 90 µM.

**Q.** And the Vmax [11]?
**A.** Its Vmax is 6320 µmol/min/mg.

**Q.** And the kcat [11]?
**A.** Its kcat is 4840 s⁻¹.

**Q.** And the kcat/Km [11]?
**A.** The kcat/Km was 4.61e+07 M⁻¹ s⁻¹.

**Q.** Which results are given for “Yersinia (Y.) kristensenii phytase YkAPPA, wild type, SEQ ID NO.1 (Yersinia kristensenii)”?
**A.** Km [12]: 90 µM; Vmax [12]: 3550 µmol/min/mg; kcat [12]: 2720 s⁻¹; kcat/Km [12]: 2.94e+07 M⁻¹ s⁻¹
